The values that follow come from publication PMC6486636 (2019).

The target in test [1] is LARP4A (1-287), N-terminal domain (Homo sapiens (Human), UniProt Q71RC2). The experiment in a line: competition EMSA (MLLE displacing 32P-oligoA15 from NTD); mutually exclusive with oligoA15 RNA; measured by competition with preformed NTD-oligoA15 complex. In general terms: In EMSA bound probe runs differently from free probe, usually more slowly.
Test [2] has as its target T1, His-SUMO-MLLE (PABPC1 MLLE domain 544-626 fused with a His-tagged SUMO tag) (Homo sapiens (Human), UniProt P11940).
T1 chain: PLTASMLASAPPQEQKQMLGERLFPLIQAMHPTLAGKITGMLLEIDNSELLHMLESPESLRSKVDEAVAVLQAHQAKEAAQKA
Description: Ni-NTA pull-down, SDS-PAGE.

Sequence of LARP4A (1-287), N-terminal domain (Homo sapiens (Human), UniProt Q71RC2) (Q71RC2 1-287): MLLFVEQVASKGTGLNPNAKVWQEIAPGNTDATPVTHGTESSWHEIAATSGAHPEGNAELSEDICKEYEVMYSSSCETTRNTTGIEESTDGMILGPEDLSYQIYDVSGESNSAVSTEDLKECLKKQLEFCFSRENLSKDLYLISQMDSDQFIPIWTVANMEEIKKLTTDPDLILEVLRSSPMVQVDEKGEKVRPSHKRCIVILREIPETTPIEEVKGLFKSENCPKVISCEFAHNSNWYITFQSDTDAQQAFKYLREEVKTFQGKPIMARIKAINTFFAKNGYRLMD

B1: PABPC1 MLLE (544-626) (protein)
chain: T1 chain
As to B1, in test [1], the binding result is given as “binds”.

B2: LARP4A (1-287), N-terminal domain (protein)
chain: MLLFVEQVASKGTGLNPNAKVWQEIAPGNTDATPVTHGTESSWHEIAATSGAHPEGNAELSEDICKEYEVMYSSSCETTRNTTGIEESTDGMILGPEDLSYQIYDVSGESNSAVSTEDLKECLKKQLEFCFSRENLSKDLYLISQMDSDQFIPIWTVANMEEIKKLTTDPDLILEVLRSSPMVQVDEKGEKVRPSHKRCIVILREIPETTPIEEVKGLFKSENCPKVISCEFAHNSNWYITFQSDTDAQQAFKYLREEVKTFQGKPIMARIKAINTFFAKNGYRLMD
In the case of B2, the binding result in test [2] is recorded as “binds”.
